From PMC6144805 come the findings set out here.

For the assay, the target named is RecQ-ΔΔC (E. coli RecQ variant lacking both the WH and HRDC domains) (Escherichia coli).

Chain of E. coli ssDNA-binding protein (SSB) (P0AGE0 whole entry): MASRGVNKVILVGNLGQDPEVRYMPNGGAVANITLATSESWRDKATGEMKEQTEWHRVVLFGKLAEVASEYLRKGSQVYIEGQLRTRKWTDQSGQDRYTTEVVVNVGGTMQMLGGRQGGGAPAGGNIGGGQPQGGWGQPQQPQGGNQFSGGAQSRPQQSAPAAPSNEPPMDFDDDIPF

For the substance “E. coli ssDNA-binding protein (SSB) (from UniProt P0AGE0 1-178) (natural protein)”, the average unwinding processivity of RecQ-ΔΔC with SSB amounted to 2.5 kb.
